Measurements: PMC3971956

Experiments:
Experiment in all cases: SAXS
ABC = ABC (human, UniProt P09874 1-373)
AB = AB (human, UniProt P09874 1-232)
PARP-1 full-length = PARP-1 full-length (human, UniProt P09874 1-1014)

Measured: binding result

Chain of PARP-1 full-length (P09874 whole entry): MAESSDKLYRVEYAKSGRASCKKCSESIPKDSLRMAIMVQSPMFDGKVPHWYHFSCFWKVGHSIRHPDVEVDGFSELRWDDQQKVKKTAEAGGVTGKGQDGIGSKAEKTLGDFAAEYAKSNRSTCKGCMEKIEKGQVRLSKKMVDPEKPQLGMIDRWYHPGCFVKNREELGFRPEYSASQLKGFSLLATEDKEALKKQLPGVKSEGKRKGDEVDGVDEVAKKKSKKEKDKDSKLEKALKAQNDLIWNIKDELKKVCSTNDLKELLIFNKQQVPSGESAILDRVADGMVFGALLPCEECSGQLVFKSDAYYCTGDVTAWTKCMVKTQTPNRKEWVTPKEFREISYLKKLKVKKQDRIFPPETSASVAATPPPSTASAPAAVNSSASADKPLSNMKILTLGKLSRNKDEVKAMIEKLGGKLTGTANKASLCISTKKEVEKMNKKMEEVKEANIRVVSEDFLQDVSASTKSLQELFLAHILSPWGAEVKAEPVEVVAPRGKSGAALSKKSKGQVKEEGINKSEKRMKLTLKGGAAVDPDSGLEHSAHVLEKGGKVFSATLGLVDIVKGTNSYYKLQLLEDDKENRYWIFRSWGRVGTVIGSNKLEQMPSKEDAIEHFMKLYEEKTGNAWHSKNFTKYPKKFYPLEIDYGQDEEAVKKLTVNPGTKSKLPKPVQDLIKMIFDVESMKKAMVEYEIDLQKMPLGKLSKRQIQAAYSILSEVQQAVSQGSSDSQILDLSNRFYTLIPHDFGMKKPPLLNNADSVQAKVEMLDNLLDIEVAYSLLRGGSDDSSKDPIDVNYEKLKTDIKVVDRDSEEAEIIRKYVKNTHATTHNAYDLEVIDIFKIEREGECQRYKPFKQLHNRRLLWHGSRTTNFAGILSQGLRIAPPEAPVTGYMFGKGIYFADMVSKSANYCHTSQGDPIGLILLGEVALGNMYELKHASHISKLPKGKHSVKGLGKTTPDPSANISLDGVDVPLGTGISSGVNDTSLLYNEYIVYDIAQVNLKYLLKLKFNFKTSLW
Chain of AB (P09874 1-232): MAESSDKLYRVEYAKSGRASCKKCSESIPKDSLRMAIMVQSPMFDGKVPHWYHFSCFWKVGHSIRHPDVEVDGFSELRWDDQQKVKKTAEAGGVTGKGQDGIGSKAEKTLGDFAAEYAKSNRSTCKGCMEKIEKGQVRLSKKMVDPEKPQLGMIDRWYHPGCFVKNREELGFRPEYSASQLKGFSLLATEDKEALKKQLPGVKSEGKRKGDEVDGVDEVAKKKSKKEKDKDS
Chain of ABC (P09874 1-373): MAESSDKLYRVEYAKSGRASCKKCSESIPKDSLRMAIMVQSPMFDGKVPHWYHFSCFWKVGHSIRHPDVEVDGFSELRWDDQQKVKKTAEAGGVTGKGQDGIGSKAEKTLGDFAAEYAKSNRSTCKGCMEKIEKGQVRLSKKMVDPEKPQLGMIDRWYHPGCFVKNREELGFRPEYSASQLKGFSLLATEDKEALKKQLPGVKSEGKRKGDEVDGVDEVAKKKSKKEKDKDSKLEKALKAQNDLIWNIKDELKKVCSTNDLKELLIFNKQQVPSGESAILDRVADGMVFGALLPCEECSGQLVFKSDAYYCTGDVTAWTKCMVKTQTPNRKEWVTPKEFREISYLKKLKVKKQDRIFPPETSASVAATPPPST

B1: 8-mer DNA (dsDNA)
DNA 1: GGAATTCC
DNA 2: GGAATTCC
binds: ABC | AB | PARP-1 full-length
